Test results: patent US20240261221A1, “POLYOL-MODIFIED LIPID COMPOUND AND PREPARATION METHOD AND APPLICATION THEREOF” (JENKEM TECHNOLOGY CO., LTD. (TIANJIN), priority 2021, published 2024)

Tests used:
KDR mRNA = experiment: Gene inhibitory effect of siRNA-PEG-lipid particle composition after cell delivery in A375 cells; type: cell-based; details: particles prepared from PEG-lipids and anti-KDR siRNA, 24 h and 48 h after transfection
Description: (1) ARPE-19 cells were cultured in a DMEM/F12+12% FBS+double antibody medium (containing 100 U/mL Penicillin, 100 μg/mL Streptomycin) and placed in an incubator at 37° C. with 5% CO2 and saturated humidity. 24 h before the experiment, the cells were seeded onto a 12-well plate at 1.2×10^5 cell/well and cultured overnight. (2) 50 μL of diluted anti-KDR siRNA:compound 1 (1:10), anti-KDR siRNA:compound 2 (1:10), and anti-KDR siRNA:compound 3 (1:10) (in molar ratios: the siRNA concentration was 20 μM) from […] with an OPTI-MEM culture medium were separately mixed with 50 μL of a diluted Lipofectamine 3000™ transfection reagent from 3 μL with an OPTI-MEM culture medium for positive control, followed by gently shaking, and the mixed solutions were left to stand for 15 min. In addition, a blank group, an NC group, and an NC-RL group were set.
Anti-KDR siRNA is an siRNA that inhibits VEGFR2 mRNA expression, and the preparation method therefor is described in patent document CN202010229195.2: the sequence is as follows: • Sense strand: 5′-GGAGUGAGAUGAAGAAAUU-3′; • Antisense strand: 5′-AAUUUCUUCAUCUCACUCC-3′. (3) The medium was refreshed for the cells in each well in the cell plate, an antibiotic-free culture medium was added at 900 μL/well, and then 100 μL of the mixed solution was added into each well, finally the total volume of each well being 1000 μL. The siRNA (or siRNA NC, or siR-NC RL) transfection concentration was 50 nM. (4) 24 h and 48 h after transfection, the 12-well plate was taken out from the incubator at 37° C. with 5% CO2, and the cells were harvested for RNA extraction for subsequent detection.
The relative expression level of KDR mRNA was calculated by AACt with GAPDH as an endogenous reference gene: mRNA expression levels were normalized for each group with the expression level for the blank group as 100%.
The foregoing procedure was similar to that of Example 4 except that the culture medium for the A375 cells was a DMEM culture medium containing 10% FBS (containing 100 U/mL Penicillin, 100 μg/mL of Streptomycin).

IgE = experiment: Plasma IgE level after challenge administration in guinea pigs; type: in vivo; details: guinea pig plasma, 40 min after challenge
Description: 48 healthy guinea pigs which were fed with food normally for 5 days were randomly divided into 6 groups, with 8 guinea pigs for each group. Group A: negative control group (0.9% sodium chloride injection): group B: positive control group (0.15 mg/mL ovalbumin solution. available from Sigma. USA, lot No. DHO15-4): group C: M-PEG47-DTDPAM (i.e., compound 1. prepared in Example 1); group D: M-PEG47-DTDPA (i.e., compound 2. prepared in Example 2): group E: M-DTDPAM-2000 (available from Tianjin JenKem Technology Co., Ltd., lot No. ZZ409P002); group F: M-DTDPA-2000 (available from Tianjin JenKem Technology Co., Ltd., lot No. ZZ409P004).
Sensitization was carried out by intraperitoneal injection, and the administration was carried out once every other day at a volume of 1 mL/guinea pig for 4 times in total. On the second day after the last sensitization, each group of guinea pigs was challenged by applying a corresponding liquid medicine to the toes thereof via intravenous injection at a dose of 2 mL/guinea pig. The animal state was observed daily during sensitization, the reaction of guinea pigs was continuously observed for 40 min at 15 min before and after challenging via intravenous injection, and the time of onset and disappearance of symptoms was recorded. Blood was collected 40 min after challenging and drug withdrawal, anticoagulated with heparin, and made into blood plasma.

guinea pigs = experiment: Allergy study of PEG-lipids in guinea pigs: systemic sensitization symptom grading; type: in vivo, guinea pig
Description: (§1) 48 healthy guinea pigs which were fed with food normally for 5 days were randomly divided into 6 groups, with 8 guinea pigs for each group.
(§2) Sensitization was carried out by intraperitoneal injection, and the administration was carried out once every other day at a volume of 1 mL/guinea pig for 4 times in total. On the second day after the last sensitization, each group of guinea pigs was challenged by applying a corresponding liquid medicine to the toes thereof via intravenous injection at a dose of 2 mL/guinea pig. […] Blood was collected 40 min after challenging and drug withdrawal, anticoagulated with heparin, and made into blood plasma.
During sensitization and at the time of challenge administration, animals were observed and recorded for the onset and duration of symptoms, such as nasal scratching, sneezing, restlessness, jumping, panting, and purpura, and the score and grade of symptoms were determined according to the criteria for grading symptoms of systemic sensitization (Table 3).

histamine = experiment: Plasma histamine level after challenge administration in guinea pigs; type: in vivo, guinea pig
Description: as §1, §2

With `CCCCCCCCCCCCCCN(CCCCCCCCCCCCCC)C(=O)CCOCCOCCOCCOCCOCCOCCOCCOCCOCCOCCOCCOCCOCCOCCOCCOCCOCCOCCOCCOCCOCCOCCOCCOCCOCCOCCOCCOCCOCCOCCOCCOCCOCCOCCOCCOCCOCCOCCOCCOCCOCCOCCOCCOCCOCCOCCOCCOC` [compound 1] the “inhibitory effect on KDR mRNA (relative expression level of KDR mRNA)” value (KDR mRNA) was “significant and continuous inhibitory effect”.

For `CCCCCCCCCCCCCCN(CCCCCCCCCCCCCC)CCCOCCOCCOCCOCCOCCOCCOCCOCCOCCOCCOCCOCCOCCOCCOCCOCCOCCOCCOCCOCCOCCOCCOCCOCCOCCOCCOCCOCCOCCOCCOCCOCCOCCOCCOCCOCCOCCOCCOCCOCCOCCOCCOCCOCCOCCOCCOCCOC` [compound 2], the “inhibitory effect on KDR mRNA (relative expression level of KDR mRNA)” value (KDR mRNA) was “significant and continuous inhibitory effect”.

With `CCCCCCCCCCCCCC(=O)OCC(COCCOCCOCCOCCOCCOCCOCCOCCOCCOCCOCCOCCOCCOCCOCCOCCOCCOCCOCCOCCOCCOCCOCCOCCOCCOCCOCCOCCOCCOCCOCCOCCOCCOCCOCCOCCOCCOCCOCCOCCOCCOCCOCCOCCOCCOCCOC)OC(=O)CCCCCCCCCCCCC` (centres unmarked) [compound 3] the “inhibitory effect on KDR mRNA (relative expression level of KDR mRNA)” value (KDR mRNA) was “significant and continuous inhibitory effect”.

B1: Positive control group: 0.15 mg/mL ovalbumin solution, available from Sigma, USA (protein, UniProt P01012 2-386, looked up)
Ovalbumin: GSIGAASMEFCFDVFKELKVHHANENIFYCPIAIMSALAMVYLGAKDSTRTQINKVVRFDKLPGFGDSIEAQCGTSVNVHSSLRDILNQITKPNDVYSFSLASRLYAEERYPILPEYLQCVKELYRGGLEPINFQTAADQARELINSWVESQTNGIIRNVLQPSSVDSQTAMVLVNAIVFKGLWEKAFKDEDTQAMPFRVTEQESKPVQMMYQIGLFRVASMASEKMKILELPFASGTMSMLVLLPDEVSGLEQLESIINFEKLTEWTSSNVMEERKIKVYLPRMKMEEKYNLTSVLMAMGITDVFSSSANLSGISSAESLKISQAVHAAHAEINEAGREVVGSAEAGVDAASVSEEFRADHPFLFCIKHIATNAVLFFGRCVSP
B1 was tested, and the IgE level (IgE) was 286.33 ± 34.67 ng/mL, the “Allergic symptoms (grade)” value (guinea pigs; after challenge administration, grade per Table 3) was “extremely positive” and the Mean score (guinea pigs; i.p. sensitization 4 times, i.v. challenge, scoring per Table 3) was 2.8. The “plasma histamine level compared with group A” value (histamine; guinea pig plasma after challenge) was “significantly different from that of group A” and the Histamine level (histamine; guinea pig plasma, 40 min after challenge) was 12.21 ± 4.25 ng/mL.
